Source: US20250171542A1 (ADEPT THERAPEUTICS, published 2025)

B1: 74F4 (antibody, human IgG1, V domains shown)
VH: QEQLEESGGGLVQPEGSLTLTCTASGFSFSGDYYMSWVRQAPGKGLEWIASIYTGSLNTYYATWAKGRFTISLTSSTTVTLQMTSLTAADTATYFCARRNKNADYGHFDLWGPGTLVTVSS
VL: YDMTQTPASVEVAVGGTVTIKCQASQSINDRLAWYQQSPGQPPKLLIYGASTLASGVPSRFKGSGSGTDFTLTISDLECADAATYYCQQGWTVSSLDNAFGGGTEVVAK
B2: 55H3/76D6 (antibody, human IgG1, V domains shown)
VH: QEQLEESGGGLVQPEGSLTLTCTVSGFSFSGDYYMSWVRQAPGKGLEWVASIYTGSLNSYYATWAKGRFTISLTSSTTVTLQMTSLTAADTATYFCARRNKNADYGHFDLWGPGTLVTVSS
VL: YDMTQTPASVEVAVGGTVTIKCQASESINDRLAWYQQKPGQPPKLLIYAASTLASGVPSRFRGSGSGTDFTLTISDLECADAATYYCQQGWTVSSLDNAFGGGTEVVAM
B3: 56E5 (antibody, human IgG1, V domains shown)
VH: QEQLEESGGGLVQPEGSLTLTCTASGFSFSGDYYMSWVRQAPGKGLEWIASIYTGSLNTYYATWAKGRFTISLTSSTTVTLQMTSLTAADTATYFCARRHKNADYGHFDLWGPGTLVTVSS
VL: YDMTQTPGSVEVAVGGTVTIKCQASQSINDRLAWYQQTPGQPPKLLIYGASTLASGVPSRFKGSGSGTEFTLTISDLECADAATYYCQQGWTVSSLDNAFGGGTEVVAK
B4: 57F11 (antibody, human IgG1, V domains shown)
VH: QEHLEESGGGLVQPEGALTLTCTASGFSFSGDYYMSWVRQAPGKGLEWIASIYTGSLNTYYATWAKGRFTISIASSTTVTLQVTSLTAADTATYFCARRTKNGDYGYFDLWGPGTLVTVSS
VL: YDMTQTPASVEVAVGGTVTIKCQASQSINDRLAWYQQKPGQPPKLLIYAASTLASGVPSRFKGSGSGTEFTLTISDLECADAATYYCQQGWTVSSLENAFGGGTEVVAK
B5: 69D10 (antibody, human IgG1, V domains shown)
VH: QEQLEESGGGLVQPEGSLTLTCTASGFSFSGDWYMSWVRQAPGKGLEWIASIYSGSLNTYYATWAKGRFTVSLTSSTTVTLQMTSLTAADTATYFCARRNKNADYGHFDLWGPGTLVTVSS
VL: YDMTQTPASVEVAVGGTVTIKCQASQSIGNALAWYQQKPGQPPKLLIYATSTLASGVPSRFKGSGSGTEFTLTISDLECGDAATYYCQQGWTVSSLDNAFGGGTEVVAK
B6: 57B10 (antibody, human IgG1, V domains shown)
VH: QEQLEESGGGLVQPEGSLTLTCTASGFSFSDDYYMSWVRQAPGKGLEWIASIYTGSLNTYYATWAKGRFTISLTSSTTVTLQMTSLTAADTATYFCARRNKNADWGHFDLWGPGTLVTVSS
VL: YDMTQTPASVEVAVGGTVTIKCQASQSISTALAWYQQKPGQPPKLLIYAASTLASGVPSRFRGSGSGTDFTLTISDLECADAATYYCQQGWTVSSLDNAFGGGTEVVAM
B7: 62E6 (antibody, human IgG1, V domains shown)
VH: QEQLEESGGDLVKPEGSLTLTCTASGFSFSGDYYMSWVRQAPGKGLEWIASIYTGSLNIYYATWAKGRFTISLTSSTTVTLQMTSLTAADTATYFCARRNKNADYGHFDLWGPGTLVTVSS
VL: YDMTQTPASVEVAVGGTVTIKCQASQSINDRLAWYQQKPRQPPKLLIYGASTLASGVPSRFKGSGSGTEFTLTISDLECVDAATYYCQQGWTVSSLDNAFGGGTEVVAK
B8: 73C8 (antibody, human IgG1, V domains shown)
VH: QEQLEESGGGLVQPEGSLTLTCTVSGFSFSGDYYMSWVRQAPGKGLEWVASIYTGSLNTYYATWAKGRFTISLTSSTTVTLQMTSLTAADTATYFCARRNKNADYGHFDLWGPGTLVTVSS
VL: YDMTQTPASVEVAVGGTVTIKCQASQSINDRLAWYQQKPGQPPKLLIYAASTLASGVPSRFRGSGSGTDFTLTISDLECADAATYYCQQGWTVSSLDNAFGGGTEVVAM
B9: 32E2 (antibody, human IgG1, V domains shown)
VH: QEQLEESGGDLVKPEGSLTLTCTASGFSFSSSYYMSWVRQAPGMGLEWIASISGGVTDNAYYASWAKGRFTVSKTSSTTVTLQLTSLTAADTATYFCARDSSSGYFFLLWGPGTLVTVSS
VL: LVMTQTPSSVSAAVGGTVTINCQASQNIYSNLAWYQQKPGQRPKLLIFGASNLRSGVPSRFKGSGSGTEYTLTISDLECADAATYYCQEGYSIGNVDNPFGGGTEVVVK
B10: 33H7 (antibody, human IgG1, V domains shown)
VH: QEQLVESGGGLVQPEGSLTVTCTASGFDLSRYFYMSWVRQAPGKGLEWIASISTGSDITDYASWAKGRFTISKTSSTTVTLQMTTLTAADTAIYFCARWTSGGGGFGLWGPGTLVTVSS
VL: QVLTQTASPVSAAVGGTVTLNCQSSQSIYNNYLSWYQQRAGQPPKLLIYSTATLASGVPSRFKGSGSGTQFTLTISEIQCEDAATYYCQGYYSGYIWTFGGGTEVVVK

Key:
[1] = target: T1, cynomolgus PD-L1-His (Sino Biological, Cat. 90251-C08H) (cynomolgus, UniProt Q9NZQ7 19-238 (human entry)); experiment: ELISA, coated cyno PD-L1-His
T1 construct: Bought protein; also called Cyno PD-L1; Cynomolgus PD-L1 ECD-His; not shown: His tag
T1 sequence (Q9NZQ7 other isoform, or with tags, fused parts or gaps C08H C08H limits assumed): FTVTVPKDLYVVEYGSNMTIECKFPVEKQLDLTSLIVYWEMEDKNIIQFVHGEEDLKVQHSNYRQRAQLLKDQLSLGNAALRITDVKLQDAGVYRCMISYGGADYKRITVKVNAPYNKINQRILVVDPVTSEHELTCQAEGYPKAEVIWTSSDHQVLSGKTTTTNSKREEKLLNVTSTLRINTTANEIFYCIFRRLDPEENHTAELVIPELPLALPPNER
Description: (§1) Briefly, Maxisorp plates (Nunc) were coated with 100 ul/well of 0.5 μg/ml human PD-L1-His (Sino Biological, Cat #10084-H08H) or cynomolgus PD-L1-His (Sino Biological, Cat. 90251-C08H) protein diluted in 1×PBS (GIBCO) overnight at 4° C. Plates were washed three times with 300 μl/well washing buffer (1×PBST, diluted from 20×PBST (Thermo Scientific) with distilled water)) and then blocked with 300 μl/well of blocking buffer (1×PBST/I % BSA) for 2 hours at RT on shaker (100 rpm). Plates were washed and added with 100 μl/well of testing antibodies, which were serial diluted with assay buffer (PBST/1% BSA). The antibodies were incubated at room temperature for 2 hours on plate shaker at 100 rpm. Plates were washed. One hundred microliter of horseradish peroxidase (HRP) conjugated detection antibody was added into each well and incubated at room temperature for 1 hour on plate shaker at 100 rpm. Plates were washed and added with 100 μl/well TMB substrate for color development at room temperature in dark for up to 10 minutes. After addition of 50 μl/well of stop solution (1N H₂SO₄), plates were read at 450 nm on a plate reader (SpectraMax M5).
(§2) Anti-HEL isotype control (Biolntron) was used as negative control.

[2] = target: T2, human PD-L1-His (Sino Biological, Cat #10084-H08H) (human, UniProt Q9NZQ7 19-238); experiment: ELISA, coated human PD-L1-His
T2 construct: Bought protein; also called human PD-L1 ECD-His; recombinant human PD-L1-His protein; not shown: His tag
T2 sequence (Q9NZQ7 19-238): as the sequence (Q9NZQ7 other isoform, or with tags, fused parts or gaps C08H C08H limits assumed) above, with T33A, S34A, N62S, Q68R, R82Q, L173F, A185T, I192T, L215H counted along it
Description: as §1, §2

[3] = target: T1, cynomolgus PD-L1-His (Sino Biological, …); experiment: BLI (Gator), cynomolgus PD-L1
[4] = target: T2, human PD-L1-His (Sino Biological, Cat …); experiment: BLI (Gator), antibody on HFC probe, human PD-L1-His in solution
Description: The affinity of the binding of the exemplary anti-PD-L1 antibodies of the present disclosure was determined. Assay was performed according to the protocol recommended by Gator or Gator Plus (Gator Bio Inc.). Briefly, human PD-L1-His (Sino Biological, Cat #10084-H08H) was serially diluted 4-fold, starting at 4 μg/ml. After three times of regeneration in generation buffer (Gator Bio, Cat #120012) and neutralization of HFC probe (Gator Bio, Cat #160003), 1 μg/ml of antibody to be tested in Q buffer (Gator Bio, Cat #120010) was immobilized onto HFC probe. After a baseline step, probe immobilized with antibody was dipped into antigen solutions. The association and dissociation of antigen from antibody was measured on BLI machine Gator. Affinity was calculated using Gator Bio analysis software.
Table 22 below summarizes the binding affinity to human PD-L1 using Gator.

[5] = target: human PD-L1 expressed on cell surface (human, UniProt Q9NZQ7 19-290); experiment: cell-based or functional assay
Chain of human PD-L1 expressed on cell surface (Q9NZQ7 19-290 limits assumed): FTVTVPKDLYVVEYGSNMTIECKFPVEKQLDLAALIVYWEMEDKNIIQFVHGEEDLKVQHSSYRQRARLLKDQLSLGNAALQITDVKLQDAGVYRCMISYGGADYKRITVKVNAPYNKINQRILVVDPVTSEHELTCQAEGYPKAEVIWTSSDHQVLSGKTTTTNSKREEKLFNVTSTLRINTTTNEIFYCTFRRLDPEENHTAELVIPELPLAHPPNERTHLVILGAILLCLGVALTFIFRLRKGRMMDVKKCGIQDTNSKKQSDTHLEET

[6] = target: T3, human PD-L1-mFc fusion protein (Sino Biological, Cat #10084-H05H) (human, UniProt Q9NZQ7 19-239); experiment: competition ELISA, coated human PD-L1-mFc, competitor human PD-1-His-hFc-Biotin
T3 construct: Bought protein; also called human PD-L1 mouse Fc fusion protein; not shown: mouse Fc
T3 sequence (Q9NZQ7 19-239 limits assumed): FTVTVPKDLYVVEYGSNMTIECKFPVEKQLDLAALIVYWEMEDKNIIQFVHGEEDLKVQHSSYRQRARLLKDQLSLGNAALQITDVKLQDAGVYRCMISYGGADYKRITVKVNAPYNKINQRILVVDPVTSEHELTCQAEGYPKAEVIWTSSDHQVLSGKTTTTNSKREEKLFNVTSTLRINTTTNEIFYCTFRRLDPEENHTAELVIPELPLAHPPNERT
Description: Briefly, microplates were precoated with […] of human PD-L1-mFc fusion protein (Sino Biological, Cat #10084-H05H) diluted in 1×PBS (GIBCO) and incubated overnight at 4° C.; Plates were washed four times with 300 μl/well washing buffer (1×PBST, diluted from 20×PBST (Thermo Scientific) with distilled water)) and then blocked with 300 μl/well of blocking buffer (1×PBST/3% BSA) for 2 hours at RT on shaker (100 rpm). […] Plates were washed and added with 100 μl/well TMB substrate for color development at room temperature in dark for up to 10 minutes. After addition of 50 μl/well of stop solution (1N H₂SO₄), plates were read at 450 nm on a plate reader (SpectraMax M5).

| Binder | EC50 [1] | EC50 [2] | Kd [3] | koff [3] | kon [3] | Kd [4] | koff [4] | kon [4] | IC50 (nM), Promega PD-1/PD-L1 blockade reporter assay [5] | IC50 [6] |
| --- | --- | --- | --- | --- | --- | --- | --- | --- | --- | --- |
| B1 | 0.0125 nM | 0.0157 nM | 0.01 nM | 5e-06 s⁻¹ | 387000 M⁻¹ s⁻¹ | 0.36 nM | 0.000238 s⁻¹ | 648000 M⁻¹ s⁻¹ |  |  |
| B2 | 0.0126 nM | 0.0199 nM | 0.03 nM | 1.1e-05 s⁻¹ | 307000 M⁻¹ s⁻¹ | 0.64 nM | 0.000317 s⁻¹ | 498000 M⁻¹ s⁻¹ | 0.97 nM |  |
| B3 | 0.0078 nM | 0.0184 nM | ≤ 0.03 nM | ≤ 1e-05 s⁻¹ | 313000 M⁻¹ s⁻¹ | 0.75 nM | 0.00056 s⁻¹ | 748000 M⁻¹ s⁻¹ | 0.41 nM |  |
| B4 | 0.0138 nM | 0.0216 nM | 0.27 nM | 0.000101 s⁻¹ | 373000 M⁻¹ s⁻¹ | 0.31 nM | 0.000113 s⁻¹ | 371000 M⁻¹ s⁻¹ |  |  |
| B5 | 0.0177 nM | 0.0215 nM | 0.18 nM | 7.7e-05 s⁻¹ | 428000 M⁻¹ s⁻¹ | 9.09 nM | 0.00653 s⁻¹ | 718000 M⁻¹ s⁻¹ |  |  |
| B6 | 0.0071 nM | 0.0186 nM | 0.03 nM | 7e-06 s⁻¹ | 284000 M⁻¹ s⁻¹ | 0.09 nM | 7.7e-05 s⁻¹ | 810000 M⁻¹ s⁻¹ | 0.47 nM |  |
| B7 | 0.0188 nM | 0.024 nM |  |  | 313000 M⁻¹ s⁻¹ | 0.43 nM | 0.000342 s⁻¹ | 788000 M⁻¹ s⁻¹ | 0.41 nM |  |
| B8 | 0.0121 nM | 0.016 nM | ≤ 0.03 nM | ≤ 1e-05 s⁻¹ | 344000 M⁻¹ s⁻¹ | 0.12 nM | 9.39e-05 s⁻¹ | 804000 M⁻¹ s⁻¹ |  |  |
| B9 | 0.179 nM | 0.106 nM | 0.53 nM | 7e-05 s⁻¹ | 133000 M⁻¹ s⁻¹ | 0.31 nM | 0.000113 s⁻¹ | 371000 M⁻¹ s⁻¹ |  | 7.5 nM |
| B10 | 0.013 nM | 0.0171 nM | 0.23 nM | 8.1e-05 s⁻¹ | 350000 M⁻¹ s⁻¹ | 0.61 nM | 0.000329 s⁻¹ | 536000 M⁻¹ s⁻¹ | 0.52 nM | 2.1 nM |
